Measured values: patent US20150258192A1, “COMPOSITIONS AND METHODS FOR PREVENTING OR TREATING CHRONIC LUNG ALLOGRAFT DYSFUNCTION (CLAD) AND IDIOPATHIC PULMONARY FIBROSIS (IPF)” (priority 2014, published 2015)
No end group written: not given here.

target: PDGFRβ(h) (Homo sapiens, UniProt P09619); experiment: Kinase Profiling Assay; type: biochemical; details: peptide 100 μM
Protocol: (§1) Every kinase activity measurement was conducted in duplicate.
(§2) Specifically, in these assays, a positively charged substrate is phosphorylated with a radiolabeled phosphate group from an ATP if the kinase is not inhibited by an inhibitor peptide. The positively charged substrate then is attracted to a negatively charged filter membrane, quantified with a scintillation counter, and compared to a 100% activity control.
(§3) In addition to determining the IC50 of the compound, the specificity of MK2 inhibitory peptides was assessed by examining activities of all 266 human kinases available for testing in the Millipore kinase profiling service (Table 1).

Chain of PDGFRβ(h) (P09619 33-1106): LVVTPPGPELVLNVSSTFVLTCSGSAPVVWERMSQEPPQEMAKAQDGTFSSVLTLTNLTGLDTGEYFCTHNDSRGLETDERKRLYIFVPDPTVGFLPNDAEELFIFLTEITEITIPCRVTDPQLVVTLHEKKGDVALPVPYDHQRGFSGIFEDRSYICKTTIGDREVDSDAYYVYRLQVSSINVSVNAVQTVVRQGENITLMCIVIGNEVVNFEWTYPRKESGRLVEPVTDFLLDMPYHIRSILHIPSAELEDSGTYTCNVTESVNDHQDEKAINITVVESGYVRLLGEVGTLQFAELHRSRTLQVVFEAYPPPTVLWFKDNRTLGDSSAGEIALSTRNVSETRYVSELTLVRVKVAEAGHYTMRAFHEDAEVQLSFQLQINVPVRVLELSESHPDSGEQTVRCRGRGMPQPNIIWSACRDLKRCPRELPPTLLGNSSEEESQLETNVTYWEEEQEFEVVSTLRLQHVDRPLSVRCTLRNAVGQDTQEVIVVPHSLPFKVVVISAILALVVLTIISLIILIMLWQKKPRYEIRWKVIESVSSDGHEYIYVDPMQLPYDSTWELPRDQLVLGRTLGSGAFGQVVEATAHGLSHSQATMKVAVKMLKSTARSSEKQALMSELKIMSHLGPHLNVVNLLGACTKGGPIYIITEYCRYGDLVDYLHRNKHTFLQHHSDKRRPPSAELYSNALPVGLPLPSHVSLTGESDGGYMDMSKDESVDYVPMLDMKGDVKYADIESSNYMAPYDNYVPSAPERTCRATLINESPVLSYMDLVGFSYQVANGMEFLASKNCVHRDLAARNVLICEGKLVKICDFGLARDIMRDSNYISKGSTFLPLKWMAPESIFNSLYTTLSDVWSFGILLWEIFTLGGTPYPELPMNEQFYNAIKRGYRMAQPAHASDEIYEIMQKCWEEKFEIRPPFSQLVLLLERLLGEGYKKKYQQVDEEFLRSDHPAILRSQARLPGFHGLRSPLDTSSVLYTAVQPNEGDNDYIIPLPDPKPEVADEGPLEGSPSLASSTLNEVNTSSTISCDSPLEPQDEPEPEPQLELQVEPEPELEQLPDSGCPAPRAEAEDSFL

| Sequence | % activity |
| --- | --- |
| FAKLAARLYRKALARQLGVAA [MMI-0300] | 81% |
| HRRIKAWLKKIKALARQLGVAA (Mammal) [MMI-0500] | 40% |
| KAFAKLAARLYRKALARQLGVAA [MMI-0400] | 53% |
| YARAAARQARAKALNRQLGVA (Mammal) [MMI-0200] | 137% |

target: T1, LOK(h) (Homo sapiens, UniProt O94804); experiment: Kinase Profiling Assay; type: biochemical; details: peptide 100 μM
T1 construct: purchased Millipore
Protocol: as §1, §2, §3

T1 sequence (O94804 whole entry): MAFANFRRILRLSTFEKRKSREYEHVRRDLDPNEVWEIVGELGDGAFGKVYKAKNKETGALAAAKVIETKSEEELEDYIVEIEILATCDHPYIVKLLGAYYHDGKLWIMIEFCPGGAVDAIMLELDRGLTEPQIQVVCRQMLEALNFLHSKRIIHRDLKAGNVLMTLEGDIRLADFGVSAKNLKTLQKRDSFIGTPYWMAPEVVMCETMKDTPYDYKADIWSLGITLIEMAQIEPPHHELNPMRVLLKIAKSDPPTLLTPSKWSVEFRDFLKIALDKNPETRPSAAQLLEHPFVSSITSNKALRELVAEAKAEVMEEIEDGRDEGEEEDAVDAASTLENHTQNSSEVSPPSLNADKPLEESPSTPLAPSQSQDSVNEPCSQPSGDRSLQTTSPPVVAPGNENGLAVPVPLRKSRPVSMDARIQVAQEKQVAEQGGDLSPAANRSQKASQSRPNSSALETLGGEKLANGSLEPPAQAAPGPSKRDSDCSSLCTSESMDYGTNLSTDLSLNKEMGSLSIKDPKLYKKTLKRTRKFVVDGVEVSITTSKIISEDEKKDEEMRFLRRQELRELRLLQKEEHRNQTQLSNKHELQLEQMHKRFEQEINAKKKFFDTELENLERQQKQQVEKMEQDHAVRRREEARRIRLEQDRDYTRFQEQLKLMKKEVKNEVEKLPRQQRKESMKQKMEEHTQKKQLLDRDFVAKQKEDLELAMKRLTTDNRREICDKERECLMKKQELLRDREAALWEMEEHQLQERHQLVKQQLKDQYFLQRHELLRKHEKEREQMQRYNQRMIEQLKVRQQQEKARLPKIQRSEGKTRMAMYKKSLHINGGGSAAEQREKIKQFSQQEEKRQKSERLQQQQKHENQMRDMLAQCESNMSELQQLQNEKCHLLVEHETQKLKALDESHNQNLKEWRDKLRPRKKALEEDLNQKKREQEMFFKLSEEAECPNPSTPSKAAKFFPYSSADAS

| Sequence | % activity |
| --- | --- |
| FAKLAARLYRKALARQLGVAA [MMI-0300] | 37% |
| HRRIKAWLKKIKALARQLGVAA (Mammal) [MMI-0500] | 7% |
| KAFAKLAARLYRKALARQLGVAA [MMI-0400] | 18% |
| YARAAARQARAKALARQLGVAA [MMI-0100] | 37% |
| YARAAARQARAKALNRQLGVA (Mammal) [MMI-0200] | 67% |

target: T2, MAPK2(h) (Homo sapiens, UniProt P28482); experiment: Kinase Profiling Assay; type: biochemical; details: peptide 100 μM
T2 construct: purchased Millipore
Protocol: as §1, §2, §3

T2 sequence (P28482 whole entry): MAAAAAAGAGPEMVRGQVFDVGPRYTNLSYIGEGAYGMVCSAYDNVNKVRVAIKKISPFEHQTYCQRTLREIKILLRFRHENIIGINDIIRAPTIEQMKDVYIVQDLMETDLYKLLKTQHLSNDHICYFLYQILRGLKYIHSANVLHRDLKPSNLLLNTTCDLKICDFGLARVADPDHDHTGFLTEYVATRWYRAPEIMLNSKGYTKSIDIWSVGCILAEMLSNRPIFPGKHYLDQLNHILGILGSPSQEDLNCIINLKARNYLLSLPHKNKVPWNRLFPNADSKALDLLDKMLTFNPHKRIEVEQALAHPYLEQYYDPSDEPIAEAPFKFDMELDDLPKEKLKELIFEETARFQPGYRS

| Sequence | % activity |
| --- | --- |
| FAKLAARLYRKALARQLGVAA [MMI-0300] | 98% |
| HRRIKAWLKKIKALARQLGVAA (Mammal) [MMI-0500] | 60% |
| KAFAKLAARLYRKALARQLGVAA [MMI-0400] | 93% |

target: Arg(h) (Homo sapiens, UniProt P42684); experiment: Kinase Profiling Assay; type: biochemical; details: peptide 100 μM
Protocol: as §1, §2, §3

| Sequence | % activity |
| --- | --- |
| FAKLAARLYRKALARQLGVAA [MMI-0300] | 72% |
| HRRIKAWLKKIKALARQLGVAA (Mammal) [MMI-0500] | 22% |
| KAFAKLAARLYRKALARQLGVAA [MMI-0400] | 84% |
| YARAAARQARAKALNRQLGVA (Mammal) [MMI-0200] | 82% |

target: T3, Met(Y1248C)(h) (Homo sapiens, UniProt P08581, Y1230C); experiment: Kinase Profiling Assay; type: biochemical; details: peptide 100 μM
T3 construct: purchased Millipore
Protocol: as §1, §2, §3

| Sequence | % activity |
| --- | --- |
| FAKLAARLYRKALARQLGVAA [MMI-0300] | 84% |
| HRRIKAWLKKIKALARQLGVAA (Mammal) [MMI-0500] | 73% |
| KAFAKLAARLYRKALARQLGVAA [MMI-0400] | 36% |
| YARAAARQARAKALARQLGVAA [MMI-0100] | 77% |
| YARAAARQARAKALNRQLGVA (Mammal) [MMI-0200] | 141% |

target: T4, TAO1(h) (Homo sapiens, UniProt Q7L7X3); experiment: Kinase Profiling Assay; type: biochemical; details: peptide 100 μM
T4 construct: purchased Millipore
T4 sequence (Q7L7X3 1-1001): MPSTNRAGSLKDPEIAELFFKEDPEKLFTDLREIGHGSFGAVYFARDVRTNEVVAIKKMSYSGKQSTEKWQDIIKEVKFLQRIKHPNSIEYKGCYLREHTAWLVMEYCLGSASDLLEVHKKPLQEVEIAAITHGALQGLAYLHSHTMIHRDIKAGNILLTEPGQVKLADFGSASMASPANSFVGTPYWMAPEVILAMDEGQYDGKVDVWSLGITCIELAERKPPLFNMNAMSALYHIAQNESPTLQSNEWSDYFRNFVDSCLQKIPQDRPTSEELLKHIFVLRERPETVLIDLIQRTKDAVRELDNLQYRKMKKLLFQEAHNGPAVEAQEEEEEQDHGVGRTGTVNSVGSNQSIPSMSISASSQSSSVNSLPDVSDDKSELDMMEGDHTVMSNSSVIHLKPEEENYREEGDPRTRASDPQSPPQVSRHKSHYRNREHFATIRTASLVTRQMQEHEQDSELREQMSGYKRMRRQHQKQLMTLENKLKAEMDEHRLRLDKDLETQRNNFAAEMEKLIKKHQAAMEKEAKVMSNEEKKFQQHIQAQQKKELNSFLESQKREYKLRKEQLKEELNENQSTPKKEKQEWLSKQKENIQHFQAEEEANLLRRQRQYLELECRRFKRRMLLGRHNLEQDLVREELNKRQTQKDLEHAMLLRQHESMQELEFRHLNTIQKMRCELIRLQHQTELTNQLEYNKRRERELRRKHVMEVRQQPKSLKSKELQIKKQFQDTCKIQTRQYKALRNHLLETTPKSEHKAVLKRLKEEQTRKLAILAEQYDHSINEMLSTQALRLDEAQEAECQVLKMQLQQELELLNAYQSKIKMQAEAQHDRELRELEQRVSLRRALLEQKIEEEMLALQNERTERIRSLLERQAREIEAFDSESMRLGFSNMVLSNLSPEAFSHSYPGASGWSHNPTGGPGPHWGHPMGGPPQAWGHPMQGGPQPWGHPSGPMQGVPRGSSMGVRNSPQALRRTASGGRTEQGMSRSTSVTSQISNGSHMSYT
Protocol: as §1, §2, §3

| Sequence | % activity |
| --- | --- |
| FAKLAARLYRKALARQLGVAA [MMI-0300] | 82% |
| HRRIKAWLKKIKALARQLGVAA (Mammal) [MMI-0500] | 24% |
| KAFAKLAARLYRKALARQLGVAA [MMI-0400] | 73% |
| YARAAARQARAKALARQLGVAA [MMI-0100] | 99% |

target: CHK2(R145W)(h) (Homo sapiens, UniProt O96017, R145W); experiment: Kinase Profiling Assay; type: biochemical; details: peptide 100 μM
Protocol: as §1, §2, §3

| Sequence | % activity |
| --- | --- |
| FAKLAARLYRKALARQLGVAA [MMI-0300] | 33% |
| HRRIKAWLKKIKALARQLGVAA (Mammal) [MMI-0500] | 3% |
| KAFAKLAARLYRKALARQLGVAA [MMI-0400] | 31% |
| YARAAARQARAKALARQLGVAA [MMI-0100] | 97% |
| YARAAARQARAKALNRQLGVA (Mammal) [MMI-0200] | 81% |

target: CDK5/p25(h) (Homo sapiens, UniProt Q00535); experiment: Kinase Profiling Assay; type: biochemical; details: peptide 100 μM
Protocol: as §1, §2, §3

Chain of CDK5/p25(h) (Q00535 whole entry): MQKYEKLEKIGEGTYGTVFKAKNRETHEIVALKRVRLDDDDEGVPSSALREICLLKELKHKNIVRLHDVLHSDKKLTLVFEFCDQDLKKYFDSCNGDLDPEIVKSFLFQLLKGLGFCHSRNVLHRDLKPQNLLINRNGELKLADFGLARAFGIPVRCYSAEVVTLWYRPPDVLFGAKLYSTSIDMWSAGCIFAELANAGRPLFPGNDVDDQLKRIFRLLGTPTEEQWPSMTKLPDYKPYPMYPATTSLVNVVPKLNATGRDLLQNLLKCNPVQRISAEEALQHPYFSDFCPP
Chain of CDK5/p25(h) (Q15078 99-307 partner limits assumed): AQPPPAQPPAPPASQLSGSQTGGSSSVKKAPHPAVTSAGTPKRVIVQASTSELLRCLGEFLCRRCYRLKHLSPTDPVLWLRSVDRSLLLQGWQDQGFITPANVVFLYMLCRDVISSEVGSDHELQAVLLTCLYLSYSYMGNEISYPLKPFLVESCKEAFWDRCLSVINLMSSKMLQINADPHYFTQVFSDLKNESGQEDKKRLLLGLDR

| Sequence | % activity |
| --- | --- |
| FAKLAARLYRKALARQLGVAA [MMI-0300] | 89% |
| HRRIKAWLKKIKALARQLGVAA (Mammal) [MMI-0500] | 66% |
| KAFAKLAARLYRKALARQLGVAA [MMI-0400] | 92% |
| YARAAARQARAKALNRQLGVA (Mammal) [MMI-0200] | 97% |

target: T5, ALK4(h) (Homo sapiens, UniProt P36896); experiment: Kinase Profiling Assay; type: biochemical; details: peptide 100 μM
T5 sequence (P36896 24-505): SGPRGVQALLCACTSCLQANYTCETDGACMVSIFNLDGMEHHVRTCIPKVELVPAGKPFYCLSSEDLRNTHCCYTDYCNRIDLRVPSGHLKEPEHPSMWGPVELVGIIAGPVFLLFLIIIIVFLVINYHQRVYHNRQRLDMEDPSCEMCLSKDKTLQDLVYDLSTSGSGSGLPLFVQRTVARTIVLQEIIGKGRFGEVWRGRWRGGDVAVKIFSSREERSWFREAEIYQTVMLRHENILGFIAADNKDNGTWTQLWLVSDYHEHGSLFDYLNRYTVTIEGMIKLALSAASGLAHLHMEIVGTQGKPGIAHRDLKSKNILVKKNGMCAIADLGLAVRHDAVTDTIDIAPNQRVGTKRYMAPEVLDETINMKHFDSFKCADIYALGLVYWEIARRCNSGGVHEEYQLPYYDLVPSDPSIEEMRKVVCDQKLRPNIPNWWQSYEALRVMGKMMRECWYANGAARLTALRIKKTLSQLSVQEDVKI
Protocol: as §1, §2, §3

| Sequence | % activity |
| --- | --- |
| FAKLAARLYRKALARQLGVAA [MMI-0300] | 140% |
| HRRIKAWLKKIKALARQLGVAA (Mammal) [MMI-0500] | 81% |
| KAFAKLAARLYRKALARQLGVAA [MMI-0400] | 130% |
| YARAAARQARAKALARQLGVAA [MMI-0100] | 124% |
| YARAAARQARAKALNRQLGVA (Mammal) [MMI-0200] | 152% |

target: T6, GRK6(h) (Homo sapiens, UniProt P43250); experiment: Kinase Profiling Assay; type: biochemical; details: peptide 100 μM
T6 construct: purchased Millipore
Protocol: as §1, §2, §3

T6 sequence (P43250 whole entry): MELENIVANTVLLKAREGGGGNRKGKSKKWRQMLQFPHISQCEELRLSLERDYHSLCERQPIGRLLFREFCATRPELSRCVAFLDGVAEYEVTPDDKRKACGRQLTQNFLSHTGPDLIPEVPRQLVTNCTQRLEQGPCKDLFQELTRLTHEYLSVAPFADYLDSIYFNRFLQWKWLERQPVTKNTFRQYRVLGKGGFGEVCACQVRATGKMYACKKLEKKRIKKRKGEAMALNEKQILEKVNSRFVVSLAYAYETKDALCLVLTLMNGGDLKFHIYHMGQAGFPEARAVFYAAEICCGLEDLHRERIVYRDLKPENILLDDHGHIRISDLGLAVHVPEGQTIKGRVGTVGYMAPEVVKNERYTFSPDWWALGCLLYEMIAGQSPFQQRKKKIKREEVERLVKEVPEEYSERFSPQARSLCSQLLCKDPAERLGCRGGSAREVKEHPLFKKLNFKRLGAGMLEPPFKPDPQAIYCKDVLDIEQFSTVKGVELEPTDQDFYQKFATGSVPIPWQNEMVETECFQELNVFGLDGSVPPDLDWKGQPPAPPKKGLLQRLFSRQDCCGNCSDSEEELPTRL

| Sequence | % activity |
| --- | --- |
| FAKLAARLYRKALARQLGVAA [MMI-0300] | 147% |
| HRRIKAWLKKIKALARQLGVAA (Mammal) [MMI-0500] | 174% |
| KAFAKLAARLYRKALARQLGVAA [MMI-0400] | 141% |
| YARAAARQARAKALARQLGVAA [MMI-0100] | 131% |
| YARAAARQARAKALNRQLGVA (Mammal) [MMI-0200] | 132% |

target: Flt4(h) (Homo sapiens, UniProt P35916); experiment: Kinase Profiling Assay; type: biochemical; details: peptide 100 μM
Protocol: as §1, §2, §3

Chain of Flt4(h) (P35916 25-1363): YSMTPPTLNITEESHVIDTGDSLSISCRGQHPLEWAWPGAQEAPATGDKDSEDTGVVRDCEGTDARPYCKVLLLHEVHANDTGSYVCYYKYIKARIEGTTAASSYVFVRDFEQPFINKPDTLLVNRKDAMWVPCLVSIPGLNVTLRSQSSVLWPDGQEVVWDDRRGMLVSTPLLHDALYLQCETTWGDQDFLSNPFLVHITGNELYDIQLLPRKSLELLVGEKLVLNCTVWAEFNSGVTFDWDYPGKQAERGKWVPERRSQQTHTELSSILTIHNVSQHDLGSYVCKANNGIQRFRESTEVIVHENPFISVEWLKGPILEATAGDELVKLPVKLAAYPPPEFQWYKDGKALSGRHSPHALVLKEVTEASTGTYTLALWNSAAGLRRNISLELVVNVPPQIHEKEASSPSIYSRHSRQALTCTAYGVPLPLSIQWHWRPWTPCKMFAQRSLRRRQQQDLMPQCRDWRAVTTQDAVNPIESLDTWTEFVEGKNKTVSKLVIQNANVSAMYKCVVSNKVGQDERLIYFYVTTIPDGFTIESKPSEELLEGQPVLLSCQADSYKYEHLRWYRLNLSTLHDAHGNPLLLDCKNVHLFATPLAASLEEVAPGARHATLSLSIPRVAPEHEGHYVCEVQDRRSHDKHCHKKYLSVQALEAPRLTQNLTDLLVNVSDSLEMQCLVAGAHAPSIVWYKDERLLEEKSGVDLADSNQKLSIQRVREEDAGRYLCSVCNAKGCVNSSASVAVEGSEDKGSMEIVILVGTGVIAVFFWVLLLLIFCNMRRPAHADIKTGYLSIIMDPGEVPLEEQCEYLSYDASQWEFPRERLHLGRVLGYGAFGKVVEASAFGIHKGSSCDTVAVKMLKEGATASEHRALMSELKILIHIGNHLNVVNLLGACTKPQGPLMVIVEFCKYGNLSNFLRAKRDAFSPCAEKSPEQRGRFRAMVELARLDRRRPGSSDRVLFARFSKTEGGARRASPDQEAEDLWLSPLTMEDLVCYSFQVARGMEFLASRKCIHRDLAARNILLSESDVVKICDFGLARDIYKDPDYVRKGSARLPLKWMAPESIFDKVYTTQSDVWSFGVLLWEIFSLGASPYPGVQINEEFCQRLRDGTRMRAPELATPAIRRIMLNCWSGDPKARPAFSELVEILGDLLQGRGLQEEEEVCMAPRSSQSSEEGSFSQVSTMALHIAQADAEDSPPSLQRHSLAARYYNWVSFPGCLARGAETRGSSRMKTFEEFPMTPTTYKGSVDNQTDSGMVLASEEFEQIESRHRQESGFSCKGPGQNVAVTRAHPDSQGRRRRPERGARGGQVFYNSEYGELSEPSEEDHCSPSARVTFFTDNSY

| Sequence | % activity |
| --- | --- |
| FAKLAARLYRKALARQLGVAA [MMI-0300] | 83% |
| HRRIKAWLKKIKALARQLGVAA (Mammal) [MMI-0500] | 73% |
| KAFAKLAARLYRKALARQLGVAA [MMI-0400] | 89% |
| YARAAARQARAKALARQLGVAA [MMI-0100] | 135% |

target: T7, IRAK4(h) (Homo sapiens, UniProt Q9NWZ3); experiment: Kinase Profiling Assay; type: biochemical; details: peptide 100 μM
T7 construct: purchased Millipore
T7 sequence (Q9NWZ3 1-460): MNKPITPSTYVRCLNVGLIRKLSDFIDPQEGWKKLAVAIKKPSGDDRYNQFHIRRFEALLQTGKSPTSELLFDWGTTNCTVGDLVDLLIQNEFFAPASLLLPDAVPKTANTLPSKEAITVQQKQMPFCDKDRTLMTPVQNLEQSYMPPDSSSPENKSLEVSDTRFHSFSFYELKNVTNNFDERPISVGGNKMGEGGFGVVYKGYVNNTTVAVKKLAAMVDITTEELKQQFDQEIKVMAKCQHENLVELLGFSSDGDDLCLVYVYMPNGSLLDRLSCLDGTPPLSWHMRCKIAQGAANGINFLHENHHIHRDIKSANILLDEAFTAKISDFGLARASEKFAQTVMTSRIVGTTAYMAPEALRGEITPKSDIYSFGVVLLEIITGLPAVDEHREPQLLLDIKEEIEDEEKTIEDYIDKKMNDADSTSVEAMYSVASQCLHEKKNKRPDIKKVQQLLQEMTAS
Protocol: as §1, §2, §3

| Sequence | % activity |
| --- | --- |
| FAKLAARLYRKALARQLGVAA [MMI-0300] | 59% |
| HRRIKAWLKKIKALARQLGVAA (Mammal) [MMI-0500] | 3% |
| KAFAKLAARLYRKALARQLGVAA [MMI-0400] | 59% |
| YARAAARQARAKALNRQLGVA (Mammal) [MMI-0200] | 110% |

target: T8, IR(h) (Homo sapiens, UniProt P06213); experiment: Kinase Profiling Assay; type: biochemical; details: peptide 100 μM
T8 construct: purchased Millipore
Protocol: as §1, §2, §3

| Sequence | % activity |
| --- | --- |
| FAKLAARLYRKALARQLGVAA [MMI-0300] | 96% |
| HRRIKAWLKKIKALARQLGVAA (Mammal) [MMI-0500] | 95% |
| KAFAKLAARLYRKALARQLGVAA [MMI-0400] | 85% |
| YARAAARQARAKALNRQLGVA (Mammal) [MMI-0200] | 90% |

target: T9, MRCKα(h) (Homo sapiens, UniProt Q5VT25); experiment: Kinase Profiling Assay; type: biochemical; details: peptide 100 μM
T9 construct: purchased Millipore
Protocol: as §1, §2, §3

| Sequence | % activity |
| --- | --- |
| HRRIKAWLKKIKALARQLGVAA (Mammal) [MMI-0500] | 5% |
| KAFAKLAARLYRKALARQLGVAA [MMI-0400] | 97% |
| YARAAARQARAKALARQLGVAA [MMI-0100] | 98% |
